Ends that are not written are not given here.
Columns and labels:
[1] = tested on: MDA-MB-231 cells; experiment: ELANE inactivation by PMSF or A1AT and killing assay; format: cell-based, human; details: irreversible non-competitive ELANE inhibitors
Protocol: (FIG. 5A) Purified native ELANE or PMN media was treated with PMSF (100 nM) or alpha-1-anti-trypsin (A1AT; 42 nM) for 30 mins and loss of ELANE catalytic activity was confirmed by a chromogenic substrate assay. Killing assays were performed by treating MDA-MB-231 cells for 24 hrs treatment and assessed by Calcein AM staining. (FIG. 5B) ELANE activity in PMN media was measured by a chromogenic substrate activity assay, and PMN killing was measured by Calcein AM staining on MDA-MB-231 cells exposed to PMN media for 4h.

[2] = tested on: ELANE; details: specific ELANE inhibitors; cited from earlier work
[3] = molecular target: T1, ELANE (Homo sapiens, UniProt P08246); experiment: ELANE catalytic activity with increasing ECP, chromogenic substrate activity assay; format: biochemical; details: ECP as type 2 allosteric activator
T1 construct: incubated the neutrophil conditioned media with magnetic beads coupled to an anti-ELANE antibody; endogenous in cells; host or cells: human peripheral blood neutrophils from healthy donors (conditioned media)
T1 sequence (P08246 30-267): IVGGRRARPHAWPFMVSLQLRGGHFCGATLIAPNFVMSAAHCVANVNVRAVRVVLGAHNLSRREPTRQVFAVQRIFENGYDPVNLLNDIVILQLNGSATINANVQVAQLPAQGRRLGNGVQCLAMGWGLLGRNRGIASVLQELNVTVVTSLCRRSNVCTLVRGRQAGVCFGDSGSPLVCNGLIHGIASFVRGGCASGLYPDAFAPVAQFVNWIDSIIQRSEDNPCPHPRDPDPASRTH
Protocol: (§1) FIG. 7A-D. ECP is a type II allosteric activator of ELANE catalytic activity. (a) 10 nM ELANE was incubated with increasing ECP concentrations at various substrate concentrations. Catalytic activity was measured by a chromogenic substrate activity assay. (b) Km (app) and Vmax (app) values were obtained by fitting curves to Michaelis-Menten equations (lines). (c) Km (app) versus ECP concentration. (d) Vmax (app) versus ECP concentration. ELANE was immunoprecipitated from human PMN media and samples were probed with anti-ELANE and anti-ECP antibodies. Orig=PMN media, Sup=flow-though, Wash=bead wash, Elute=bound to anti-ELANE antibody.
as §1, with “ECP” for “FIG. 7A-D. ECP”, “(FIG. 7A)” for “(a)”, “(FIG. 7B)” for “(b)”, “(FIG. 7C)” for “(c)”, “(FIG. 7D)” for “(d)”

[4] = tested on: MDA-MB-231 cells; experiment: Cancer cell killing, Calcein AM staining; format: cell-based, human; details: increasing doses, 5h
Protocol: Approach to identify the factor(s) mediating selective killing. A quantitative cancer cell killing assay was developed to track the bioactive factor(s). MDA-MB-231 cells were treated with various doses of PMN media and cell viability was assessed by Calcein AM live cells fluorescence staining. […] (FIG. 3B) PMN media was passed through a 0.22 μm filter, and protein concentration and killing activity on MDA-MB-231 cancer cells was measured in both pre- and post-filter solutions. […] ELANE and ECP levels in PMN media pre- and post-filtration were quantified by mass spectrometry (spectral counts).
To determine if ELANE and/or ECP were responsible, the inventors (1) immuno-depleted ELANE or ECP from PMN media; (2) treated cancer or normal cells with purified native ELANE or ECP from commercial sources. (FIG. 6A) ELANE or ECP were depleted from PMN media by immunoprecipitation; depletion was confirmed by western blotting. PMN media pre-depletion=Orig. and post-depletion=FT. Non-specific IgG was used as a control. (FIG. 6B) MDA-MB-231 cells or human monocyte-derived macrophages (HMDMs) were treated with purified native ELANE or ECP at various doses for 24h, and killing was assessed by Calcein AM staining. (FIG. 6C) MDA-MB-231 cells and HMDMs were treated with levels of ELANE (0.25 μg/mL) or ECP (0.05 μg/mL) that were present in the PMN media, alone or in combination for 24 hrs, and killing was examined by Calcein AM staining.
High doses of ECP or ELANE can kill cancer cells. The inventors sought to determine whether adding purified human ECP (Lee Biosolutions), human ELANE (Abcam), human DEFA1 (Abcam), human ANXA6 (R&D Systems) or human CASP3 (Abcam) individually could kill cancer cells without killing non-cancer cells. Increasing doses of each protein were added to MDA-MB-231 cells for 5h or human monocyte-derived macrophages (HMDMs) for 24 h and cell viability was determined by Calcein-AM.
ELANE and ECP synergize to selectively kill cancer cells. MDA-MB-231 and human monocyte-derived macrophages (HMDMs) were treated with levels of ELANE (0.25 μg/mL) or ECP (0.05 μg/mL) that were present in the PMN media, alone or in combination for 24 hrs. killing was examined by Calcein AM staining.
Combining chemotherapeutics and neutrophil conditioned media enhances the killing of human triple negative breast cancer cells. MDA-MB-231 cells were treated with neutrophil conditioned media (Neu-CM; 4 μg/mL), doxorubicin (DOX; 0.3 μM), or paclitaxel (PTX; 3 nM) for 4h, individually or in combination, and cell viability was assessed by Calcein-AM.
Other serine proteases cleave the C-terminal domain of CD95, and the ability to cleave the C-terminal domain is associated with cancer cell killing. (FIG. 12A) Full length recombinanat CD95 protein was incubated with various serine proteases (human ELANE (80 nM), PR3 (80 nM), CSTG (80 nM), PPE (80 nM), mouse ELANE (80 nM), rat ELANE (500 nM), GZMB (80 nM), or Trypsin (250 nM)), or other types of proteases (CTSC (80 nM); or MMP7 (80 nM), MMP9 (80 nM), CTSD (80 nM) not shown) at 37° C. for 2 hours. Degradation was assessed by SDS-PAGE followed by coomassie blue staining. (FIG. 12B) MDA-MB-231 cancer cells were incubated with various proteases for 24 hrs. Cell viability was assessed by Calcein AM staining.
(FIG. 13A) MDA-MB-231 cancer cells were treated with various doses of purified native ELANE or purified native porcine pancreatic elastase (PPE) for 6 h, and killing was assessed by Calcein AM staining. (FIG. 13B). Purified native ELANE or purified native PPE was incubated with different concentrations of alpha-1-anti-trypsin (A1AT) for 15 mins. Catalytic activity was measured using a chromogenic substrate assay. Cancer cell killing capability was determined by treating MDA-MB-231 cancer cells with ELANE or PPE in the presence or absence of A1AT for 6h, followed by Calcein AM staining. (FIG. 13C) Catalytic activity was measured using a chromogenic substrate assay. […]

[5] = tested on: human monocyte-derived macrophages (HMDMs); format: cell-based
Protocol: Human peripheral blood neutrophils were isolated from healthy donors. Cells were plated in serum-free DMEM and the neutrophil conditioned media (Neu CM) was collected for 24h. […] High doses of ECP or ELANE can kill cancer cells. The inventors sought to determine whether adding purified human ECP (Lee Biosolutions), human ELANE (Abcam), human DEFA1 (Abcam), human ANXA6 (R&D Systems) or human CASP3 (Abcam) individually could kill cancer cells without killing non-cancer cells. Increasing doses of each protein were added to MDA-MB-231 cells for 5h or human monocyte-derived macrophages (HMDMs) for 24 h and cell viability was determined by Calcein-AM. […] ELANE and ECP synergize to selectively kill cancer cells. MDA-MB-231 and human monocyte-derived macrophages (HMDMs) were treated with levels of ELANE (0.25 μg/mL) or ECP (0.05 μg/mL) that were present in the PMN media, alone or in combination for 24 hrs. killing was examined by Calcein AM staining.

[6] = molecular target: T1, ELANE; experiment: Anti-ELANE magnetic bead pull-down from neutrophil conditioned media, western blotting; format: binding; details: anti-ELANE antibody beads
Source text: Identification of ECP, ELANE, ANXA6, DEFA1, and CASP3 as candidate cancer cell killing proteins in the neutrophil conditioned media. Neutrophil conditioned media was obtained from 2 different donors (Donor 1 and Donor 2). […] To determine the identity of the proteins depleted by the 0.2 μm sterile filter, the inventors performed quantitative proteomics analysis on the conditioned media from each donor pre- and post-filter. Proteomics analysis identified 2000 proteins, 4 of which (ECP, ELANE, ANXA6, and DEFA1) were depleted in samples from both donors (G-test, p<0.05). The inventors explored the possibility that these proteins might interact with or complement one another. This hypothesis was tested using two approaches. First, the inventors incubated the neutrophil conditioned media with magnetic beads coupled to an anti-ELANE antibody and analyzed the supernatant (sup), wash, and eluent (elute) by western blotting.

[7] = tested on: E0771, B16F10, or LLC1 cancer cells; experiment: Tumor growth after intratumoral delivery, syngeneic models; format: in vivo, C57BL/6 mice; details: 11.6 μg intratumorally once/day for 5 days
Protocol: ELANE activity is required for its anti-tumor function in vivo. (FIG. 14A) Catalytic activity of ELANE or ELANE that had been inactivated by treatment with 100 nM PMSF (PMSF-ELANE) was determined by a chromogenic substrate. (FIG. 14B) E0771, B16F10, or LLC1 cancer cells were injected into C57BL/6 mice. Once tumors reached ˜100 mm^3, human serum albumin (HSA, 11.6 μg), ELANE (11.6 μg), or PMSF-ELANE (11.6 μg) were delivered intratumorally once/day for 5 days. Tumor volume was assessed by calipers.

**Q.** With alpha-1-antitrypsin as the molecule, how does the “effect on cancer cell apoptosis of treating ELANE or neutrophil conditioned media with inhibitor” value [1] read?
**A.** protects cancer cells from apoptosis

**Q.** With `O=S(=O)(F)Cc1ccccc1` [PMSF] as the molecule, how does the “effect on cancer cell apoptosis of treating ELANE or neutrophil conditioned media with inhibitor” value [1] read?
**A.** protects cancer cells from apoptosis

**Q.** Which “growth of transplanted cancer cells” value [2] does the source give for “elafin (AQEPVKGPVSTKPGSCPIILIRCAMLNPPNRCLKDTDCPGIKKCCEGSCGMACFVPQ; ends and bridges not checked; cysteine pairing not given here; UniProt P19957 61-117, looked up)” here?
**A.** suppress growth of cancer cells transplanted into severe combined immunodeficiency mice

**Q.** Which “growth of transplanted cancer cells” value [2] does the source give for `CC(C)(C)C(=O)Oc1ccc(S(=O)(=O)Nc2ccccc2C(=O)NCC(=O)O)cc1` [sivelestat] here?
**A.** suppress growth of cancer cells transplanted into severe combined immunodeficiency mice

B1: eosinophil cationic protein (protein, listed as Homo sapiens)
chain: MVPKLFTSQICLLLLLGLMGVEGSLHARPPQFTRAQWFAIQHISLNPPRCTIAMRAINNYRWRCKNQNTFLRTTFANVVNVCGNQSIRCPHNRTLNNCHRSRFRVPLLHCDLINPGAQNISNCTYADRPGRRFYVVACDNRDPRDSPRYPVVPVHLDTTI
**Q.** Which results are given for B1?
**A.** effect on KM of ELANE [3]: without altering KM; increase of kcat of ELANE for its substrate [3]: 12 fold; cancer cell killing activity of purified protein [4]: highest cancer cell killing activity; toxicity to human monocyte-derived macrophages [5]: showed toxicity; binding to ELANE [6]: ELANE-binding proteins

B2: PMSF-ELANE: ELANE that had been inactivated by treatment with PMSF (protein, UniProt P08246 30-267, looked up)
Neutrophil elastase: T1 sequence (P08246 30-267)
modifications: PMSF-inactivated
**Q.** For B2, which tumor growth [7] is on record?
**A.** no effect on tumor growth
